Experimental data published in publication PMC4837325, “Arabidopsis HIGH PLOIDY2 Sumoylates and Stabilizes Flowering Locus C through Its E3 Ligase Activity” (Frontiers in Plant Science, 2016).

Molecular target: T1, GST-HPY2 (Arabidopsis thaliana, UniProt Q8GYH7 1-249)
T1 construct: HIGH PLOIDY2 (HPY2), E3 SUMO ligase of Arabidopsis, full-length cDNA cloned into pGEX4T-1; also called HIGH PLOIDY2; AtHPY2; source: E. coli BL21, purified (glutathione resin)
T1 sequence (looked up): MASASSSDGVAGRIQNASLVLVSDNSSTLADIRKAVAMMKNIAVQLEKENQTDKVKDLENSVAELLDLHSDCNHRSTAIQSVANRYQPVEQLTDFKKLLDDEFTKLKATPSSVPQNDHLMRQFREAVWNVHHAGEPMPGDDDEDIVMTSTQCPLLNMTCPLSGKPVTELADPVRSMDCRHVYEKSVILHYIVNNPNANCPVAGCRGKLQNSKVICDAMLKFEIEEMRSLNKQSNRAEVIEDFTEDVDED
Test: pull-down; in vitro GST pull-down, 2 ug each of GST-HPY2 bait and His6-FLC prey; His6-FLC detected by Western blot with anti-His antibody
Settings: both partners purified

- binding result: binds
B1: His6-FLC (natural protein, Arabidopsis thaliana, UniProt Q9S7Q7 1-196, looked up)
chain: MGRKKLEIKRIENKSSRQVTFSKRRNGLIEKARQLSVLCDASVALLVVSASGKLYSFSSGDNLVKILDRYGKQHADDLKALDHQSKALNYGSHYELLELVDSKLVGSNVKNVSIDALVQLEEHLETALSVTRAKKTELMLKLVENLKEKEKMLKEENQVLASQMENNHHVGAEAEMEMSPAGQISDNLPVTLPLLN
notes: Flowering Locus C (FLC), MADS-box transcription factor of Arabidopsis, full-length cDNA cloned into pET28a; also called Flowering Locus C; source: E. coli BL21, purified (Ni2+-NTA resin)
